Bridge positions count the residues as written; N and C are the ends. Ends that are not written are not given here.
What was measured:
Experiment in all cases: enzyme inhibition (steady state, chromogenic substrate S-2444); about 2 nM enzyme (purified or conditioned medium of transfected cells) pre-incubated 15 min with varied peptide in HBS (10 mM HEPES pH 7.4, 140 mM NaCl) with 0.1% BSA at 37°C; substrate about KM; fit for competitive inhibition; highest peptide concentration 400 µM
muPA-Y99A (murine) = target: muPA-Y99A (murine)
muPA-K41A (murine) = target: muPA-K41A (murine)
muPA-K143A (murine) = target: muPA-K143A (murine)
muPA-V213T (murine) = target: muPA-V213T (murine)
muPA-S190A (murine) = target: muPA-S190A (murine)

Ki (muPA-Y99A (murine)) | Ki (muPA-K41A (murine)) | Ki (muPA-K143A (murine)) | Ki (muPA-V213T (murine)) | Ki (muPA-S190A (murine)) | Binder
27.2 µM | 0.27 µM | 4.34 µM | 0.373 µM | 3.02 µM | CPAYSRYLAC (disulfide 1-10 (inferred)) [Mupain-1 D9A]
26 µM | 4.29 µM | 4.88 µM | 0.246 µM | 1.6 µM | CPAYSRYLDC (disulfide 1-10 (inferred)) [mupain-1]

Reference: paper PMC4278837, “A Cyclic Peptidic Serine Protease Inhibitor: Increasing Affinity by Increasing Peptide Flexibility” (PLoS ONE, 2014)
